Data reported in patent US20260166168A1 (MEDILINK THERAPEUTICS SUZHOU, published 2026).

T1: human DLL1 on 293T-hDLL1 cells (human, UniProt O00548 18-723)
T1 construct: whole, on cells; also called 293T-DLL1; HEK293T-hDLL1
T1 sequence (looked up): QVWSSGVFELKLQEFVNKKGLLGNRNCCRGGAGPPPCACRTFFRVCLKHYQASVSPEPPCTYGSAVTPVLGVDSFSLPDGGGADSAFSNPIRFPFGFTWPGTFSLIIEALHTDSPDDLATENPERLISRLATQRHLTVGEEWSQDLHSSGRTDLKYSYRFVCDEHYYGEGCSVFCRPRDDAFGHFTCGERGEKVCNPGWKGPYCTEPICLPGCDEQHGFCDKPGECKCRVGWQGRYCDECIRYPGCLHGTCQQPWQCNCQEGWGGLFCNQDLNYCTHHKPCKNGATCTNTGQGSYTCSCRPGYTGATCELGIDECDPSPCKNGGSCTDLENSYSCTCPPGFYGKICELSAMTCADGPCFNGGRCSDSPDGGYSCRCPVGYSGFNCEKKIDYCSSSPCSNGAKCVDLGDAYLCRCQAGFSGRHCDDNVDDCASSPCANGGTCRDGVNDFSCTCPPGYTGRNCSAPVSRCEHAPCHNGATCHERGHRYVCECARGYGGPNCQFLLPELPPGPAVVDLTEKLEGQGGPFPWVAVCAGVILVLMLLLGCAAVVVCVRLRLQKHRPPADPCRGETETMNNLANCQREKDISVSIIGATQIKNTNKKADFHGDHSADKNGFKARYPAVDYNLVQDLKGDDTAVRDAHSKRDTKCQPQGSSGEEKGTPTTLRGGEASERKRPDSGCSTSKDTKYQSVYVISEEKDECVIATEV

T2: recombinant extracellular domain protein of cynomolgus monkey DLL3 (cyno.DLL3-ECD-His) (cynomolgus monkey, UniProt A0A2K5WSR1 27-490)
T2 construct: extracellular domain; Commercial protein; not shown: His tag
T2 sequence: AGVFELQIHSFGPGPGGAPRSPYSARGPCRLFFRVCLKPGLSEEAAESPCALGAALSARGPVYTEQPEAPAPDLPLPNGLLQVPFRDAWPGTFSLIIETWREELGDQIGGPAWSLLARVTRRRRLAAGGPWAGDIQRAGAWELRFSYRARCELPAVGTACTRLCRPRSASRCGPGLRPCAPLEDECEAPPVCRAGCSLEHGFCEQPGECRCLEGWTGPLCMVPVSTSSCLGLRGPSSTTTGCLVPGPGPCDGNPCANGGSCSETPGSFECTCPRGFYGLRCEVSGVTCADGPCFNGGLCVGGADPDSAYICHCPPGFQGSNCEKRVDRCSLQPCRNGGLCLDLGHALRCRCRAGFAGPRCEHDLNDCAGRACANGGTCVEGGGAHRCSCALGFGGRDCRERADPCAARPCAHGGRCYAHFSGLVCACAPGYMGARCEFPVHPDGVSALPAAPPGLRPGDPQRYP

T3: recombinant extracellular domain protein of human DLL3 (h.DLL3-ECD-His) (human, UniProt Q9NYJ7 27-492)
T3 construct: extracellular domain; Commercial protein; also called human DLL3 antigen; not shown: His tag
T3 sequence (looked up): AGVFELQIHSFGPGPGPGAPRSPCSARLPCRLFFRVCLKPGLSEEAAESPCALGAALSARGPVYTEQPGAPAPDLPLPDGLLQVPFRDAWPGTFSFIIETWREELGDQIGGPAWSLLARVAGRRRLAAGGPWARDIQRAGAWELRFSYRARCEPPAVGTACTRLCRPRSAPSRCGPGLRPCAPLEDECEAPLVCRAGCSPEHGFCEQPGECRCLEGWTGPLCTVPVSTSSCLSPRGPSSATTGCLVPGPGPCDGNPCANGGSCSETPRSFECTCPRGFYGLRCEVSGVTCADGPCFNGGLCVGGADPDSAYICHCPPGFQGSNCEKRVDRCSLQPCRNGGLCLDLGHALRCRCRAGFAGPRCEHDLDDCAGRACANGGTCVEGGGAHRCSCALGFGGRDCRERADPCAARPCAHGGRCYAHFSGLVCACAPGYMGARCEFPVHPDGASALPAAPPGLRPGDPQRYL


Assays:
[1] = biological target: T1, human DLL1 on 293T-hDLL1 cells; test: flow cytometry on HEK293T-hDLL1 cells
[2] = biological target: T2, recombinant extracellular domain …; test: ELISA, coated cyno.DLL3-ECD-his 0.2 µg/mL, antibody titrated
[3] = biological target: T4, human DLL4 on 293T-hDLL4 cells (human, UniProt Q9NR61 27-685); test: flow cytometry on HEK293T-hDLL4 cells
T4 construct: whole, on cells; also called 293T-DLL4; HEK293T-hDLL4

[4] = biological target: T2, recombinant extracellular domain …; test: BLI (ForteBio), antibody on ProA sensor, cynoDLL3-ECD-His in solution
[5] = biological target: T3, recombinant extracellular domain …; test: BLI (ForteBio), antibody on ProA sensor, hDLL3-ECD-His in solution
[6] = biological target: T3, recombinant extracellular domain …; test: ELISA, coated h.DLL3-ECD-his 0.2 µg/mL, antibody titrated
[7] = biological target: T3, recombinant extracellular domain …; test: ELISA, titrated antibody on plate-coated human DLL3, OD450nm

T4 sequence (Q9NR61 27-685): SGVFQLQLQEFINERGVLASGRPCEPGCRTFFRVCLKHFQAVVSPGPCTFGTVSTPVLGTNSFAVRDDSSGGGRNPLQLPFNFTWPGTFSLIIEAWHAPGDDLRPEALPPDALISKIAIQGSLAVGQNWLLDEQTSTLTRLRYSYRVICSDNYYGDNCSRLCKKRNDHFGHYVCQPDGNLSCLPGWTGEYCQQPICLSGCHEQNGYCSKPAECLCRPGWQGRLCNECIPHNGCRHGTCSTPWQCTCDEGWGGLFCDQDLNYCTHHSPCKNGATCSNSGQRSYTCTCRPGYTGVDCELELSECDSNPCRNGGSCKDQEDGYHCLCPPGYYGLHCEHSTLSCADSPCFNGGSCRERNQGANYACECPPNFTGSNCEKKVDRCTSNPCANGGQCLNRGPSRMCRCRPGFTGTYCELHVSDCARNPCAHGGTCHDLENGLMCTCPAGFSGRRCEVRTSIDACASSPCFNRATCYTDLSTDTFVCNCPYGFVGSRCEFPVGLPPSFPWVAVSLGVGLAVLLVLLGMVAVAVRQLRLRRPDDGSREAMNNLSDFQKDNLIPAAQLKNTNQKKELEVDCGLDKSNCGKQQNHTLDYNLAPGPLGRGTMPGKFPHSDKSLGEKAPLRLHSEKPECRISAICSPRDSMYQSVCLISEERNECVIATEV

Binder | binding result [1] | EC50 [2] [ng/mL] | binding result [3] | Kd [4] [nM] | koff [4] [s⁻¹] | kon [4] [M⁻¹ s⁻¹] | Kd [5] [nM] | koff [5] [s⁻¹] | kon [5] [M⁻¹ s⁻¹] | EC50 [6] [ng/mL] | EC50 (read off the curve) [7] [ng/mL]
10F2F3-Hz antibody (antibody, human IgG1, kappa, V domains shown, Humanized) VH: QVQLVESGAEVKKPGSSVKVSCKASGYAFSSHWVNWVRQAPGQGLEWMGQIYPGNGDTNYAQKFQGRVTLTADKSTSTAYMELSSLTSEDTAVYFCARWFAYWGQGTLVTVSS VL: DIQMTQSPSSLSASVGDRVTITCKSSQSLLDGGNQKNYLAWYQQKPGKPPKLLVYFASIRESGVPSRFSGSGSGTDFTLTISSLQPEDFATYYCQQHYNTPWTFGQGTKVEIKR | no binding (tested: 20 µg/mL) | 3.5 | no binding (tested: 20 µg/mL) | 1.28 | 0.000122 | 95100 | 6.07 | 0.00045 | 74200 | 3.4 | –
DL301 (antibody, V domains shown) VH: QVQLQQSGADLVRPGTSVKVSCKASGYAFTNYLIEWIKQRPGQGLEWIGVMNPGSGGTHYSEKFRGKATLTADKSSSTAYMQLISLTSDDSAVYFCARSDYDYVTYAMDYWGQGTSVTVSS VL: DIKMTQSPSSMYASLGERVTITCKASQDINSYLIWFQQKPGKSPKTLIYRTNRLVDGVPSRFSGSGSGQDYSLTISSLEYGDMGIYYCLQYDEFPFTFGSGTKLEIK | – | – | – | – | – | – | – | – | – | – | ~4
DL309 (antibody, V domains shown) VH: QVQLQQSGGDLMKPGASVKISCKAAGYTFSNYYIEWVKQRPGHGLEWIGEILPGSGSTTYNEKFKGKASFTADTSSNTAYMQLSSLTSEDSAVYYCARWGAREPGFPYWGQGTLVTVSA VL: DIVMTQSQKFMSTSVGDRVSVTCKASQNVGTNVAWYQQKPGQSPKALIYSASYRYSGVPDRFTGSGSGTDFTLTISNVQSEDLAEYFCQQYNNYPLTFGAGTKLELK | – | – | – | – | – | – | – | – | – | – | ~6
DL312 (antibody, V domains shown) VH: EVKLVESGGGLVQPGGSLSLSCAASGFTFTDYYMNWVRQPPGKALEWLALIRNKANGYTTEYNASVKGRFTISRDNSQNILYLQMNALRAEDSATYYCARDSDGYYEYYFDYWGQGTTLTVSS VL: DIQMTQSPSSLSASLGERVSLTCRASQEISDYLSWLQQKPDGTIKRLIFAASTLDSGVPKRFSGSRSGSDFSLSISSLESEDFADYYCLQYASYPYTFGSGTKLEIK | – | – | – | – | – | – | – | – | – | – | ~5
DL306 (antibody, V domains shown) VH: EVQLQQSGPELVKPGASVKMSCRASGYTFTDYYMKWVKQSHGKSLEWIGDINPNNGDTFYNQKFKGKATLTIDKSSSTAYMQLNSLTSDDSAVYYCARDGNYAYFDYWGQGTTLTVSS VL: DIVLTQSPASLAVSLGQRATISCRASKSVSTSGYSYMHWYQQKPGQPPKLLIFLASNLESGVPARFSGSGSGTDFTLNIHPVEEEDAATYYCQHSRHLPWTFGGGTKLEIK | – | – | – | – | – | – | – | – | – | – | ~5

Other lines, results leading:

binding result [1] | EC50 [2] [ng/mL] | binding result [3] | Kd [4] [nM] | koff [4] [s⁻¹] | kon [4] [M⁻¹ s⁻¹] | Kd [5] [nM] | koff [5] [s⁻¹] | kon [5] [M⁻¹ s⁻¹] | EC50 [6] [ng/mL] | EC50 (read off the curve) [7] [ng/mL] | Binder
no binding (tested: 20 µg/mL) | 3.3 | no binding (tested: 20 µg/mL) | 2.41 | 8.84e-05 | 36700 | 8.57 | 0.000218 | 25400 | 3.8 | – | 87F7F10-Hz (antibody, human IgG1, kappa, V domains shown, Humanized; also called 87F7F10-hz1) VH: QVQLQESGPGLVKPSETLSLTCTVSGYSITSDFYWNWIRQPPGKGLEWIGYITYDGSTNYNPSLKSRVTISRDTSKNQFSLKLSSVTAADTAVYYCVYGDFNRHAMDYWGQGTLVTVSS VL: DIVMTQSPDSLAVSLGERATINCRSSQSLFNSRTRKNYLAWYQQKPGQPPKVLIYWASTRESGVPDRFSGSGSGTDFTLTISSLQAEDVAVYYCEQSFYLFTFGQGTKVEIKR
no binding (tested: 20 µg/mL) | 5.4 | no binding (tested: 20 µg/mL) | 0.873 | 0.000328 | 375000 | 0.243 | 4.27e-05 | 175000 | 4.7 | – | 6F11C10-Hz1 antibody (antibody, human IgG1, kappa, V domains shown, Humanized IgG1/kappa) VH: EVQLVQSGAEVKKPGASVKVSCKASGFTFTDYYMHWVRQAPGQSLEWMGLVYPYNGDISYAQKFQGRVTLTVDTSISTAYMELSRLRSDDTAVYYCARQGNYVNNAIDYWGQGTLVTVSS VL: DIQMTQSPSSLSASVGDRVTITCKASQNVGNIIAWYQQKPGKSPKALIYLASYRYSGVPSRFSGSGSGTDFTLTISSLQPEDVATYFCQQYSDSPYTFGQGTKVEIKR
no binding (tested: 20 µg/mL) | 6.3 | no binding (tested: 20 µg/mL) | 9.08 | 0.000908 | 100000 | 14 | 0.0017 | 122000 | 5.2 | – | 59B10D3-Hz antibody (antibody, human IgG1, kappa, V domains shown, Humanized; also called 59B10D3-hz1) VH: EVQLVESGGGLVQPGGSLRLSCAASGFTFSDAWMDWVRQAPGKGLEWVAEIRNKANNHATYYVDSVKGRFTISRDDAKNSVYLQMNSLRAEDTAVYYCTRNNYGSTWTYYAMDYWGQGTLVTVSS VL: DIQMTQSPSSLSASVGDRVTITCRASQDISNYLNWYQQKPGKAVKLLIYYTSRLHSGVPSRFSGSGSGTDYTLTISSLQPEDFATYYCQQGYTLPLTFGQGTKVEIKR
no binding (tested: 20 µg/mL) | 4.1 | no binding (tested: 20 µg/mL) | 2.37 | 0.000479 | 202000 | 5.26 | 0.000652 | 124000 | 3.9 | – | 55C11E4-Hz1 (antibody, human IgG1, kappa, V domains shown, Humanized IgG1/kappa) VH: EVQLVQSGAEVKKPGASVKVSCKASGYTFTDYYMNWVRQAPGQRLEWMGVINPYNGGTNYSQKFQGRVTLTVDKSASTAYMELSSLRSEDTAVYYCARDSNYVGLLDYWGQGTLVTVSS VL: DIVLTQSPATLSLSPGERATLSCRASQSISNNLHWYQQKPGQAPRLLIKYASQSISGIPARFSGSGSGPDFTLTISSLEPEDFAVYFCQQSNSWPYTFGQGTKVEIKR
